Measured values reported in WO2025026282A1 (dated 2025).
Numbering of substitutions follows the chain as printed. In names and notes the source's numbering stands. One block for each binder: values may come before it.

Legend:
Human PD-L1 = molecular target: T1, Human PD-L1 (human, UniProt Q9NZQ7 19-238, limits assumed); assay: BLI (Octet R8), human PD-L1
T1 construct: Diluted to 2 ug/ml in KB buffer for BLI; construct not described

human CD3 epsilon = molecular target: T2, human CD3 epsilon (human, UniProt P07766 23-126, limits assumed); assay: SPR (Biacore), antigen captured, antibody as analyte
T2 construct: the same molecule is used here for both
T2 sequence (P07766 23-126 limits assumed): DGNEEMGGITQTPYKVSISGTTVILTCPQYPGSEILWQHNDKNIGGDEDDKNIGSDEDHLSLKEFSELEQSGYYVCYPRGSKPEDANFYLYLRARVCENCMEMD

human CD32 alpha = molecular target: T3, human CD32 alpha (human, UniProt P12318 34-217, limits assumed); assay: BLI (Octet), human CD32 alpha
T3 construct: also called FcgammaRII
T3 sequence (looked up): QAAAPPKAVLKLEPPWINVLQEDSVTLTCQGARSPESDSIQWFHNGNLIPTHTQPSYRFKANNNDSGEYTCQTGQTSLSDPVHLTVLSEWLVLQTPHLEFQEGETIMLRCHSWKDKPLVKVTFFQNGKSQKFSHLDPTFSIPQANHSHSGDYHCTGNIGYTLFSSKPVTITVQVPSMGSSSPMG

human CD64 = human CD64 (human, UniProt P12314 16-292, limits assumed); assay: BLI (Octet), human CD64
Sequence of human CD64 (P12314 16-292 limits assumed): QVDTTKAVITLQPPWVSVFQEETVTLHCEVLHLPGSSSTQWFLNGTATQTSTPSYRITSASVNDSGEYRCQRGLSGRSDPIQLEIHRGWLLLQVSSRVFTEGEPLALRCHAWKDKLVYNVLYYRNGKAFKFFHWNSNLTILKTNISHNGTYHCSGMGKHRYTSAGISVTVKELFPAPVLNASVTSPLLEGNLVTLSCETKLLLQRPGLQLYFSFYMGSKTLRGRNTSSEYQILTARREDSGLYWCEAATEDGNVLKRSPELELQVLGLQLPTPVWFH

T1 sequence (Q9NZQ7 19-238 limits assumed): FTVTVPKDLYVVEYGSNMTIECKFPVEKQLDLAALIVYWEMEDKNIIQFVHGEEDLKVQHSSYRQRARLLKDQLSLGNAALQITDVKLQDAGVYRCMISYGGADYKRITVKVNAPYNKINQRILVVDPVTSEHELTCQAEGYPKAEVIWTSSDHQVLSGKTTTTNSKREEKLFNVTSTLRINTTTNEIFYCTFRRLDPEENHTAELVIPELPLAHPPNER

- Kd (Human PD-L1): 72.8 nM
B1: 12A69 (other)
chain 1: QAVVTQEPSLTVSPGGTVTLTCRSSTGAVTTSNYANWVQQKPGQAPRGLIGGTNKRAPWTPARFSGSLLGGKAALTLSGAQAEDEADYYCALWYSNLWVFGGGTKLTVLRTVAAQVQLVQSGAEVKKPGSSVKVSCKTSGDTFSSYAISWVRDAPGQCLEWMGGIIPIFGKAHYAQKFQGRVTITADESTSTAYMELSSLRSEDTAVYFCARKFHFVSGSPFGMDVWGQGTTVTVSSASEPKSSDKTHTCPPCPAPPVAGPSVFLFPPKPKDTLMISRTPEVTCVVVDVSQEDPEVKFNWYVDGVEVHNAKTKPREEQFNSTYRVVSVLTVLHQDWLNGKEYKCKVSNKGLPSSIEKTISKAKGQPREPQVYTLPPSRDELTKNQVSLWCLVKGFYPSDIAVEWESNGQPENNYKTTPPVLDSDGSFFLYSKLTVDKSRWQQGNVFSCSVMHEALHNHYTQKSLSLSP
chain 2: EVQLVESGGGLVQPGGSLRLSCAASGFTFTDYYMNWVRQAPGKALEWLGFIRNKVNGDTTEYAASVKGRFTISRDDSKNSLYLQMNSLKTEDTAVYYCARDKGIAYYFDYWGQGTLVTVSSASTKGPSVFPLAPSSKSTSGGTAALGCLVKDYFPEPVTVSWNSGALTSGVHTFPAVLQSSGLYSLSSVVTVPSSSLGTQTYICNVNHKPSNTKVDKKVEPKSCDGGGGSGGGGSEIVLTQSPATLSLSPGERATLSCRASQSVSSYLAWYQKKPGQAPRLLIYDASNRATGIPARFSGSGSGTDFTLTISSLEPEDFAVYYCQQRSNAPTFGCGTKVEIKRTVAAEVQLVESGGGLVQPGGSLRLSCAASGFTFSTYAMNWVRQAPGKGLEWVGRIRSKYNNYATYYADSVKGRFTISRDDSKNSLYLQMNSLRAEDTAVYYCVRHGNFGTSYVSWFAYWGQGTLVTVSS
chain 3: EVQLVESGGGLVQPGGSLRLSCAASGFTFTDYYMNWVRQAPGKALEWLGFIRNKVNGDTTEYAASVKGRFTISRDDSKNSLYLQMNSLKTEDTAVYYCARDKGIAYYFDYWGQGTLVTVSSASTKGPSVFPLAPSSKSTSGGTAALGCLVKDYFPEPVTVSWNSGALTSGVHTFPAVLQSSGLYSLSSVVTVPSSSLGTQTYICNVNHKPSNTKVDKKVEPKSCDKTHTCPPCPAPPVAGPSVFLFPPKPKDTLMISRTPEVTCVVVDVSQEDPEVKFNWYVDGVEVHNAKTKPREEQFNSTYRVVSVLTVLHQDWLNGKEYKCKVSNKGLPSSIEKTISKAKGQPREPQVYTLPPSRDELTKNQVSLSCAVKGFYPSDIAVEWESNGQPENNYKTTPPVLDSDGSFFLVSKLTVDKSRWQQGNVFSCSVMHEALHNRFTQKSLSLSP
chain 4: EIVLTQSPATLSASPGERATLSCRASQSVSYIHWYQQKPGQSPRPWIHGTSNLATGVPARFSGSGSGTDFTLTISSLEPEDAAVYYCQQWSSNLSTFGGGTKVEIKRTVAAPSVFIFPPSDEQLKSGTASVVCLLNNFYPREAKVQWKVDNALQSGNSQESVTEQDSKDSTYSLSSTLTLSKADYEKHKVYACEVTHQGLSSPVTKSFNRGEC

- Kd (human CD3 epsilon): 118 nM
B2: 12A44 (other)
chain 1: B1 chain 1
chain 2: B1 chain 2 with A329W, K400Q
chain 3: B1 chain 3
chain 4: B1 chain 4

- Kd (human CD32 alpha): ~527 nM
- binding result (human CD64): binds
B3: 12A39 (2:1:1 asymmetric tri-specific antibody, Type E structure, CEA x CD3 x PD-L1) (other)
chain 1: B1 chain 1
chain 2: B1 chain 2 with A329W
heavy: B1 chain 3
light: B1 chain 4
notes: Tri-specific antibody; also called polypeptide complex 12A39

- Kd (human CD3 epsilon): 176 nM
B4: 12A46 (other)
chain 1: B1 chain 1
chain 2: B1 chain 2 with A329W, V455A
heavy: B1 chain 3
light: B1 chain 4
notes: Kabat position; choice of chain inferred; also called V100C A (12A46)
